This is an account of results in PMC6930800, “Coexpression of CCR7 and CXCR4 During B Cell Development Controls CXCR4 Responsiveness and Bone Marrow Homing” (Frontiers in Immunology, 2019).

Experiment [1] concerns the target T1, CCR7 expressed on CHO-K1 cells (UniProt P32248 25-378).
T1 construct: chemokine receptor CCR7, recombinant, on CHO-K1 cells; source: CHO-K1 cells expressing CCR7 only or co-expressing CXCR4 and CCR7
T1 sequence (looked up): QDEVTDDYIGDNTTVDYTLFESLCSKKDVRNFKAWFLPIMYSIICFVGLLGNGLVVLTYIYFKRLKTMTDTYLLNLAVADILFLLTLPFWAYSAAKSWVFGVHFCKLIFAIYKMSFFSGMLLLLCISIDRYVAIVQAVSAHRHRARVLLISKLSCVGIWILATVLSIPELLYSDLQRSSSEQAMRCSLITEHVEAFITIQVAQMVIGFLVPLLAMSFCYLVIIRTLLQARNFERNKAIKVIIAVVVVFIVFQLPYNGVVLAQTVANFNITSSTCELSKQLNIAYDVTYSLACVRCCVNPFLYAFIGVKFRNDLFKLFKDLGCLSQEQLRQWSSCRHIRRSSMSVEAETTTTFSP
In words: radioligand binding; competition on CHO-K1 cells expressing CCR7 only; tracer 0.1 nM 125I-CCL19, increasing concentrations of unlabelled competitor; non-specific binding defined with 300 nM competitor. The conditions noted are these: one partner purified.

In experiment [2] the target is T1, CCR7 expressed on CHO-K1 cells. The experiment is described as follows: radioligand binding; competition on CHO-K1 cells co-expressing CXCR4 and CCR7; tracer 0.1 nM 125I-CCL19, increasing concentrations of unlabelled competitor; non-specific binding defined with 300 nM competitor. The conditions noted are these: one partner purified.

B1: CCL21 (ligand, UniProt O00585 24-134, looked up)
chain: SDGGAQDCCLKYSQRKIPAKVVRSYRKQEPSLGCSIPAILFLPRKRSQAELCADPKELWVQQLMQHLDKTPSPQKPAQGCRKDRGASKTGKKGKGSKGCKRTERSQTPKGP
Broadly, the IC50 is the concentration that gives 50% inhibition. Turning to B1, the results for the IC50 in experiment [1] and in experiment [2] were 4.06 nM and 4.2 nM, respectively.

B2: CCL19 (ligand, UniProt Q99731 22-98, looked up)
chain: GTNDAEDCCLSVTQKPIPGYIVRNFHYLLIKDGCRVPAVVFTTLRGRQLCAPPDQPWVERIIQRLQRTSAKMKRRSS
notes: also called unlabeled CCL19
In the case of B2, the IC50 amounted to 1.84 nM in experiment [1] and 1.7 nM in experiment [2].
